{"source": "patent US20220064332A1", "about": "(INSERM INSTITUT NATIONAL DE LA SANT ET DE LA RECHERCHE M …, published 2022)", "key": {"[1]": {"molecular_target": "T1, 4-kDa GST-cath-D pro-fragment (UniProt P07339 21-64, limits assumed)", "T1 construct": "domain: 4-kDa pro-fragment; Produced in E. coli BL21", "T1 chain (looked up)": "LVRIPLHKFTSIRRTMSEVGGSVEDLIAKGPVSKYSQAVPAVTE", "assay": "immunoprecipitation of GST-cath-D fusion fragments"}, "[2]": {"molecular_target": "T2, 14-kDa light chain GSTcath-D (UniProt P07339 65-162, limits assumed)", "T2 construct": "domain: 14-kDa light chain; Produced in E. coli BL21", "T2 sequence (P07339 65-162 limits assumed)": "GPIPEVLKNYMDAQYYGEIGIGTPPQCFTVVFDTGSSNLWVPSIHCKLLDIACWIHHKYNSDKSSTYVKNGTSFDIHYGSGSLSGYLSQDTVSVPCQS", "assay": "immunoprecipitation of GST-cath-D fusion fragments"}, "[3]": {"molecular_target": "T3, human 52-kDa pro-cath-D secreted from MDA-MB-231 cells (human, UniProt P07339 21-412)", "T3 construct": "domain: 52-kDa pro-cath-D; Captured from conditioned medium by the M2E8 antibody in the sandwich ELISA; also called secreted human 52-kDa pro-cath-D", "assay": "sandwich ELISA: M2E8 capture of pro-cath-D from MDA-MB-231 conditioned medium, serial dilutions of IgG, anti-human Fc-HRP", "experimental": "Cells were cultured in DMEM with 10% fetal calf serum (FCS, GibcoBRL). To produce conditioned medium, cells were grown to 90% confluence in DMEM medium with 10% FCS, and conditioned medium was centrifuged at 800×g for 10 min. For sandwich ELISA, 96-well plates were coated with M2E8 antibody in PBS (500 ng/well) at 4° C. overnight. After blocking non-specific sites with PBST/1% BSA, conditioned medium was added at 4° C. for 2 h. […] Cath-D was quantified in TNBC cytosols by sandwich ELISA, as described above, after coating with the D7E3 antibody in PBS (200 ng/well) and with the M1G8 antibody conjugated to HRP (1/80), and using recombinant pro-cath-D (1.25-15 ng/ml) for reference (6). TNBC cytosols were previously prepared and frozen (25). GST-cath-D fusion proteins were produced in the E. coli B strain BL21 as described (9)."}}, "data": [{"binder": "anti-cath-D antibody E2 (fully human IgG1λ) (antibody, V domains shown) VH: EVQLVESGGSLVKPGGSLRLSCAASGFTFSNSYMNWVRQAPGKGLEWISYISGSSRYISYADFVKGRFTISRDNATNSLYLQMNSLRAEDTAVYYCVRSSNSYFGGGMDVWGRGTLVTVSS VL: QSVLTQPASVSGSPGQSITISCAGTSSDVGGSYGVSWYQQHPGKAPKLMIYGDSYRPSGVSNRFSGSKSGNTASLTISGLQAEDEADYYCSSYTNYSTRVFGGGTKLAVL", "values": [{"measurement": "binding result", "setting": "[1]", "value": "no binding"}, {"measurement": "binding result", "setting": "[2]", "value": "no binding"}, {"measurement": "EC50", "setting": "[3]", "value": 1.2, "unit": "nM"}]}]}
